Source: article PMC4570671, “A Novel Aldo-Keto Reductase (AKR17A1) of Anabaena sp. PCC 7120 Degrades the Rice Field Herbicide Butachlor and Confers Tolerance to Abiotic Stresses in E. coli” (PLoS ONE, 2015)

Experiments:
Assay in all cases: purified protein
Conditions in all cases: 0.12 mM NADPH, 50 mM potassium phosphate pH 7.4, 10 mM 2-mercaptoethanol, 37°C
CCOC(=O)C(C)=O = test system: CCOC(=O)C(C)=O
O=Cc1ccccc1[N+](=O)[O-] = test system: O=Cc1ccccc1[N+](=O)[O-]
[1] = test system: CCCCOCN(C(=O)CCl)c1c(CC)cccc1CC
O=C1Nc2ccccc2C1=O = test system: O=C1Nc2ccccc2C1=O
CC(=O)C=O = test system: CC(=O)C=O
O=Cc1ccccc1 = test system: O=Cc1ccccc1

AKR17A1 (All2316) (Nostoc sp. PCC 7120 = FACHB-418)
Km (CCOC(=O)C(C)=O): 6.213 (2.214) mM
kcat (CCOC(=O)C(C)=O): 1.43 s⁻¹
kcat/Km (CCOC(=O)C(C)=O): 228 M⁻¹ s⁻¹
Km (O=Cc1ccccc1[N+](=O)[O-]): 0.014 (0.002) mM
kcat (O=Cc1ccccc1[N+](=O)[O-]): 1.59 s⁻¹
kcat/Km (O=Cc1ccccc1[N+](=O)[O-]): 114000 M⁻¹ s⁻¹
Km [1]: 0.548 (0.190) mM
kcat [1]: 2.11 s⁻¹
kcat/Km [1]: 3840 M⁻¹ s⁻¹
Km (O=C1Nc2ccccc2C1=O): 0.011 (0.005) mM
kcat (O=C1Nc2ccccc2C1=O): 1.58 s⁻¹
kcat/Km (O=C1Nc2ccccc2C1=O): 136000 M⁻¹ s⁻¹
Km (CC(=O)C=O): 4.164 (0.973) mM
kcat (CC(=O)C=O): 1.6 s⁻¹
kcat/Km (CC(=O)C=O): 383 M⁻¹ s⁻¹
Km (O=Cc1ccccc1): 3.740 (1.098) mM
kcat (O=Cc1ccccc1): 1.51 s⁻¹
kcat/Km (O=Cc1ccccc1): 404 M⁻¹ s⁻¹
